# In patent US20190153111A1:
# Experiments:
# [1] = biological target: Human FcγRIIIA 158V (human) (UniProt P08637); experiment: SPR (T100), biotinylated receptor on streptavidin chip, equilibrium binding, 1:1 model
# [2] = biological target: Human FcγRIIIA 158F (human) (UniProt P08637); experiment: as above
# Human FcγRIIIA 158F (human), sequence (P08637 17-199 limits assumed): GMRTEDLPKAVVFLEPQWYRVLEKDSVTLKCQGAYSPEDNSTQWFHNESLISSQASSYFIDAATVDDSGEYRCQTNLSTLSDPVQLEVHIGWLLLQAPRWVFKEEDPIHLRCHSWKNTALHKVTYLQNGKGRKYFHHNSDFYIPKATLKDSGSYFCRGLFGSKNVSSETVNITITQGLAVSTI
# Human FcγRIIIA 158V (human), sequence (P08637 other isoform, or with tags, fused parts or gaps): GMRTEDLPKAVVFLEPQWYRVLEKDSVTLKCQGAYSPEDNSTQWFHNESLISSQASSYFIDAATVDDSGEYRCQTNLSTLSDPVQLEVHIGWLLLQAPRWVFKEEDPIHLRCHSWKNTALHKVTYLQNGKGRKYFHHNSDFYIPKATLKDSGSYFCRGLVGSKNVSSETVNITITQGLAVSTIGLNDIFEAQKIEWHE
substance,measurement,setting,value
HCD122 (antibody),Ka,[1],1.72e+06 M⁻¹
same,Ka,[2],699000 M⁻¹
